Source: article PMC7501274

Tests used:
[1] = target: CsaC-H228A (Neisseria meningitidis serogroup A); assay: crystal structure; sitting drop, PEG200, HEPES pH 7.0/7.6; two protein molecules in the asymmetric unit, tetrameric assembly in the crystal packing; apo, CPS-DP4-soaked (wild type) and acetyl-CoA-soaked (H228A) crystals
[2] = target: capsule O-acetyltransferase CsaC, wild type (Neisseria meningitidis serogroup A); assay: as above
[3] = target: capsule O-acetyltransferase CsaC, wild type (Neisseria meningitidis serogroup A); assay: AUC; sedimentation velocity (3.0 to 40.9 µM CsaC, 35,000 rpm) and sedimentation equilibrium (9.1 and 40.9 µM CsaC, single species model), 20 °C, 50 mM HEPES pH 7.0, 0.1 M NaCl, 5 mM MgCl2, 1 mM EDTA

Substance | stoichiometry N [1] | stoichiometry N [2] | stoichiometry N [3]
CsaC-H228A (enzyme) | 4 | – | –
capsule O-acetyltransferase CsaC, wild type (enzyme) | – | 4 | 4
